Assay [1] concerns the target T1, HLA-A2.1 heavy chain with I125-labeled beta2-microglobulin (heterotrimer dissociation assay) (human, I^125-labeled).
T1 construct: T1/2 is the half-time of dissociation of labeled beta2-microglobulin from the heavy chain/peptide/beta2-microglobulin complex; also called HLA-A2.1 heavy chain / beta2-microglobulin complex
The assay can be described thus: dissociation of I125-labeled beta2-microglobulin from the heavy chain/peptide/beta2-microglobulin complex, HPLC gel filtration.

Assay [2] deals with T1, HLA-A2.1 heavy chain with I125-labeled …. As to the kind of experiment: I125-beta2-microglobulin dissociation assay.
For assay [3], the target named is T2, HLA-A2.1 (HLA-A*0201) on the surface of T2 cells (human).
T2 construct: also called HLA-A2 on T2
As to the kind of experiment: T2 stabilisation assay, indirect flow cytometry with BB7.2 (FIG. 34). On the technique in general: In flow cytometry, cells or beads pass a laser one at a time.

The target in assay [4] is T2, HLA-A2.1 (HLA-A*0201) on the surface of …. As to the kind of experiment: T2 stabilisation assay, flow cytometry.

In the case of RLFPDFFTRV [PR2 peptide of proteinase 3], in assay [1], the T1/2 was found to be 2.33 h. With RLFEQVMRI [MY4 peptide of myeloperoxidase], the binding result in assay [2] and in assay [3] was “binds” throughout. Turning to VLQELNVTV (Synthetic peptide, minimum 95% purity) [PR1 (aa 169-177) peptide of proteinase 3], the T1/2 in assay [1] was 24.3 h. Consider LIQPFMFRL [MY5 peptide of myeloperoxidase], for which the binding result in assay [2] and in assay [3] was “binds” each time. For SLWRRPFNV [MY1 peptide of myeloperoxidase], the binding result in assay [2] and in assay [3] was “binds” each time. Take KLNDILLIQL (also called PR71) [PR7I peptide of proteinase 3 (amino acid 115-124, Ile 119 variant)]: the binding result in assay [4] is given as “binds”. Turning to KLNDVLLIQL [PR7V peptide of proteinase 3 (amino acid 115-124, Val 119 variant)], the binding result in assay [4] is “binds”. In the case of LLSYFKQPV [MY3 peptide of myeloperoxidase], the binding result in assay [2] and in assay [3] was “binds” each time. Regarding KLLLALAGL [MY2 peptide of myeloperoxidase], the binding result in assay [2] and in assay [3] was “binds” in each case.

The record behind these values is patent publication US20060045883A1 (published 2006).
